From US20230365662A1
Numbering of substitutions follows the chain as printed. Names may count otherwise. “And” between values parts separate entries of the source, which are not always exact repeats. Equal entries are not always repeated.

B1: parental mouse (KB001) Fab FASEBA (Fab, V domains shown)
VH: EVQLKQSGPGLVAPSQSLSITCTVSGFSLSIYSVHWVRQPPGKGLEWLGMIWGGGSSDYNSALKSRLSISKDNSKSQVFLKMNSLQTDDTAMYYCARNGNFYAMDYWGQGTSVTVSS
VL: QIVLTQSPAIMSASLGERVTMTCTASSSVSSSFLHWYQQKPGSSPQLWIYSTSNLASGVPARFSGSGSGTSYSLTISSMEAEDAATYYCHQYHHSPYIYTFGGGTKLEIK
B2: parental mouse (KB001) Fab FASEBA, VL variant I98R (Fab, V domains shown)
VH: B1 VH
VL: B1 VL with I98R
B3: parental mouse (KB001) Fab FASEBA, VL variant I98V (Fab, V domains shown)
VH: B1 VH
VL: B1 VL with I98V
B4: parental mouse (KB001) Fab FASEBA, VL variant I98L (Fab, V domains shown)
VH: B1 VH
VL: B1 VL with I98L
B5: parental mouse (KB001) Fab FASEBA, VL variant Y97I (Fab, V domains shown)
VH: B1 VH
VL: B1 VL with Y97I
B6: parental mouse (KB001) Fab FASEBA, VL variant Y97Q (Fab, V domains shown)
VH: B1 VH
VL: B1 VL with Y97Q
B7: parental mouse (KB001) Fab FASEBA, VL variant S95I (Fab, V domains shown)
VH: B1 VH
VL: B1 VL with S95I
B8: parental mouse (KB001) Fab FASEBA, VL variant Y97S (Fab, V domains shown)
VH: B1 VH
VL: B1 VL with Y97S
B9: parental mouse (KB001) Fab FASEBA, VL variant T100V (Fab, V domains shown)
VH: B1 VH
VL: B1 VL with T100V
B10: parental mouse (KB001) Fab FASEBA, VL variant S95C (Fab, V domains shown)
VH: B1 VH
VL: B1 VL with S95C
B11: parental mouse (KB001) Fab FASEBA, VL variant Y97K (Fab, V domains shown)
VH: B1 VH
VL: B1 VL with Y97K
B12: parental mouse (KB001) Fab FASEBA, VL variant I98M (Fab, V domains shown)
VH: B1 VH
VL: B1 VL with I98M
B13: parental mouse (KB001) Fab FASEBA, VL variant S95Y (Fab, V domains shown)
VH: B1 VH
VL: B1 VL with S95Y
B14: parental mouse (KB001) Fab FASEBA, VL variant T100P (Fab, V domains shown)
VH: B1 VH
VL: B1 VL with T100P
B15: parental mouse (KB001) Fab FASEBA, VL variant Y97R (Fab, V domains shown)
VH: B1 VH
VL: B1 VL with Y97R
B16: parental mouse (KB001) Fab FASEBA, VL variant Y97L (Fab, V domains shown)
VH: B1 VH
VL: B1 VL with Y97L
B17: parental mouse (KB001) Fab FASEBA, VL variant T100I (Fab, V domains shown)
VH: B1 VH
VL: B1 VL with T100I
B18: parental mouse (KB001) Fab FASEBA, VL variant Y97H (Fab, V domains shown)
VH: B1 VH
VL: B1 VL with Y97H
B19: parental mouse (KB001) Fab FASEBA, VL variant Y97V (Fab, V domains shown)
VH: B1 VH
VL: B1 VL with Y97V
B20: parental mouse (KB001) Fab FASEBA, VL variant S95H (Fab, V domains shown)
VH: B1 VH
VL: B1 VL with S95H
B21: parental mouse (KB001) Fab FASEBA, VL variant Y97F (Fab, V domains shown)
VH: B1 VH
VL: B1 VL with Y97F
B22: KB001 parental mouse Fab VH variant G99Y (Fab, V domains shown)
VH: B1 VH with G99Y
VL: B1 VL
B23: KB001 parental mouse Fab VH variant G99A (Fab, V domains shown)
VH: B1 VH with G99A
VL: B1 VL
B24: KB001 parental mouse Fab VH variant K64D (Fab, V domains shown)
VH: B1 VH with K64D
VL: B1 VL
B25: KB001 parental mouse Fab VH variant S65G (Fab, V domains shown)
VH: B1 VH with S65G
VL: B1 VL
B26: KB001 parental mouse Fab VH variant K64H (Fab, V domains shown)
VH: B1 VH with K64H
VL: B1 VL
B27: KB001 parental mouse Fab VH variant S65L (Fab, V domains shown)
VH: B1 VH with S65L
VL: B1 VL
B28: KB001 parental mouse Fab VH variant S65Y (Fab, V domains shown)
VH: B1 VH with S65Y
VL: B1 VL
B29: KB001 parental mouse Fab VH variant G99N (Fab, V domains shown)
VH: B1 VH with G99N
VL: B1 VL
B30: KB001 parental mouse Fab VH variant S65H (Fab, V domains shown)
VH: B1 VH with S65H
VL: B1 VL
B31: KB001 parental mouse Fab VH variant K64M (Fab, V domains shown)
VH: B1 VH with K64M
VL: B1 VL
B32: KB001 parental mouse Fab VH variant K64G (Fab, V domains shown)
VH: B1 VH with K64G
VL: B1 VL
B33: KB001 parental mouse Fab VH variant K64Q (Fab, V domains shown)
VH: B1 VH with K64Q
VL: B1 VL
B34: KB001 parental mouse Fab VH variant K64L (Fab, V domains shown)
VH: B1 VH with K64L
VL: B1 VL
B35: KB001 parental mouse Fab VH variant S65R (Fab, V domains shown)
VH: B1 VH with S65R
VL: B1 VL
B36: KB001 parental mouse Fab VH variant G99F (Fab, V domains shown)
VH: B1 VH with G99F
VL: B1 VL
B37: KB001 parental mouse Fab VH variant K64E (Fab, V domains shown)
VH: B1 VH with K64E
VL: B1 VL
B38: KB001 parental mouse Fab VH variant S65P (Fab, V domains shown)
VH: B1 VH with S65P
VL: B1 VL
B39: KB001 parental mouse Fab VH variant G99S (Fab, V domains shown)
VH: B1 VH with G99S
VL: B1 VL
B40: KB001 parental mouse Fab VH variant S65F (Fab, V domains shown)
VH: B1 VH with S65F
VL: B1 VL
B41: KB001 parental mouse Fab VH variant S65T (Fab, V domains shown)
VH: B1 VH with S65T
VL: B1 VL

These binders were tested against HRgpA-6H (Porphyromonas gingivalis) (UniProt P28784) (assay: ELISA, Fab FASEBA supernatant on coated HRgpA-6H).
UniProt P28784, sequence (P28784 228-991 limits assumed): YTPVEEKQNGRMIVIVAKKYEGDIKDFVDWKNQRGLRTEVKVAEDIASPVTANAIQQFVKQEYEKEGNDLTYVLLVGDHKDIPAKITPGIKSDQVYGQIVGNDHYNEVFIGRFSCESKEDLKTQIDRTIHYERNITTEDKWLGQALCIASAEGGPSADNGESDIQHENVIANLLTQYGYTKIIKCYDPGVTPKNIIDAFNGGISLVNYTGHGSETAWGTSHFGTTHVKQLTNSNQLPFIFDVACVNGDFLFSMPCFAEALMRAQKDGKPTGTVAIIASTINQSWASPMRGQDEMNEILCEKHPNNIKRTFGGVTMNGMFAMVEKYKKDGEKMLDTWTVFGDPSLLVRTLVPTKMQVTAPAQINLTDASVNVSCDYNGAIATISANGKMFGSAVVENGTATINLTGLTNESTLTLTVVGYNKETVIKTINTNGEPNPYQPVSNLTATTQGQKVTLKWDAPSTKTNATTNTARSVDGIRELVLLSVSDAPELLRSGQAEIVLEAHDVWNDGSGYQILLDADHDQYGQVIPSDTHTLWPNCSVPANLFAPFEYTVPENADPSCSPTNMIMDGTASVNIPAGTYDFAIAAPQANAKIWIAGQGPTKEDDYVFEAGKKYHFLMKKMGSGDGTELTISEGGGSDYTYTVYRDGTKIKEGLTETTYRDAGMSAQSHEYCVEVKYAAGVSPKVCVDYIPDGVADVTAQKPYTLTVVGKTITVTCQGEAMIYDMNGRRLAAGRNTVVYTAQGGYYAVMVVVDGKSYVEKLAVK
In the case of B1, the OD450nm is reported as 0.9 OD450nm and 0.889 OD450nm and the Ratio OD(Variant)/OD(WT) is reported as 0.98 ratio to WT and 0.968 ratio to WT.
With B2 the OD450nm was 0.726 OD450nm and 0.722 OD450nm and the Ratio OD(Variant)/OD(WT) was 0.83 ratio to WT and 0.825 ratio to WT.
For B3, the OD450nm was 0.832 OD450nm and 0.838 OD450nm and 0.787 OD450nm and the Ratio OD(Variant)/OD(WT) was 0.951 ratio to WT and 0.958 ratio to WT and 0.899 ratio to WT.
With B4 the OD450nm was 0.836 OD450nm and the Ratio OD(Variant)/OD(WT) was 0.955 ratio to WT.
In the case of B5, the OD450nm is reported as 0.667 OD450nm and the Ratio OD(Variant)/OD(WT) is reported as 0.845 ratio to WT.
B6 was tested, and the OD450nm was 0.687 OD450nm and the Ratio OD(Variant)/OD(WT) was 0.871 ratio to WT.
B7 was tested, and the OD450nm was 0.846 OD450nm and 0.817 OD450nm and 0.791 OD450nm and the Ratio OD(Variant)/OD(WT) was 0.921 ratio to WT and 0.889 ratio to WT and 0.861 ratio to WT.
With B8 the OD450nm was 0.633 OD450nm and the Ratio OD(Variant)/OD(WT) was 0.802 ratio to WT.
For B9, the OD450nm was 0.461 OD450nm and 0.428 OD450nm and the Ratio OD(Variant)/OD(WT) was 0.881 ratio to WT and 0.818 ratio to WT.
With B10 the OD450nm was 0.849 OD450nm and the Ratio OD(Variant)/OD(WT) was 0.924 ratio to WT.
In the case of B11, the OD450nm is reported as 0.654 OD450nm and the Ratio OD(Variant)/OD(WT) is reported as 0.829 ratio to WT.
With B12 the OD450nm was 0.729 OD450nm and the Ratio OD(Variant)/OD(WT) was 0.833 ratio to WT.
With B13 the OD450nm was 0.827 OD450nm and the Ratio OD(Variant)/OD(WT) was 0.9 ratio to WT.
In the case of B14, the OD450nm is reported as 0.46 OD450nm and the Ratio OD(Variant)/OD(WT) is reported as 0.879 ratio to WT.
B15 was tested, and the OD450nm was 0.769 OD450nm and the Ratio OD(Variant)/OD(WT) was 0.975 ratio to WT.
For B16, the OD450nm was 0.739 OD450nm and the Ratio OD(Variant)/OD(WT) was 0.937 ratio to WT.
In the case of B17, the OD450nm is reported as 0.493 OD450nm and the Ratio OD(Variant)/OD(WT) is reported as 0.942 ratio to WT.
For B18, the OD450nm was 0.775 OD450nm and the Ratio OD(Variant)/OD(WT) was 0.982 ratio to WT.
For B19, the OD450nm was 0.662 OD450nm and the Ratio OD(Variant)/OD(WT) was 0.839 ratio to WT.
For B20, the OD450nm was 0.8 OD450nm and the Ratio OD(Variant)/OD(WT) was 0.871 ratio to WT.
B21 was tested, and the OD450nm was 0.75 OD450nm and 0.756 OD450nm and the Ratio OD(Variant)/OD(WT) was 0.951 ratio to WT and 0.958 ratio to WT.

What follows are binders tested against HRgpA-6H (Porphyromonas gingivalis) (UniProt P28784) (assay: ELISA, Fab FASEBA supernatant on coated HRgpA-6H (0.0625 ug/ml)).
For B22, the OD450nm was 0.769 and the Ratio OD(Variant)/OD(WT) was 0.965.
In the case of B23, the OD450nm is reported as 0.74 and the Ratio OD(Variant)/OD(WT) is reported as 0.928.
B24 was tested, and the OD450nm was 0.781 and the Ratio OD(Variant)/OD(WT) was 0.944.
With B25 the OD450nm was 0.825 and the Ratio OD(Variant)/OD(WT) was 0.998.
For B26, the OD450nm was 0.788 and 0.806 and 0.73 and the Ratio OD(Variant)/OD(WT) was 0.953 and 0.975 and 0.883.
Binder B27 has an OD450nm of 0.728 and a Ratio OD(Variant)/OD(WT) of 0.88.
Binder B28 has an OD450nm of 0.724 and a Ratio OD(Variant)/OD(WT) of 0.875.
With B29 the OD450nm was 0.639 and 0.698 and the Ratio OD(Variant)/OD(WT) was 0.802 and 0.876.
For B30, the OD450nm was 0.823 and 0.767 and the Ratio OD(Variant)/OD(WT) was 0.995 and 0.927.
For B31, the OD450nm was 0.784 and the Ratio OD(Variant)/OD(WT) was 0.948.
B32 gave an OD450nm of 0.811 and a Ratio OD(Variant)/OD(WT) of 0.981.
For B33, the OD450nm was 0.789 and the Ratio OD(Variant)/OD(WT) was 0.954.
Binder B34 has an OD450nm of 0.664 and a Ratio OD(Variant)/OD(WT) of 0.803.
B35 gave an OD450nm of 0.794 and a Ratio OD(Variant)/OD(WT) of 0.96.
For B36, the OD450nm was 0.771 and the Ratio OD(Variant)/OD(WT) was 0.967.
B37 gave an OD450nm of 0.789 and a Ratio OD(Variant)/OD(WT) of 0.954.
In the case of B38, the OD450nm is reported as 0.814 and the Ratio OD(Variant)/OD(WT) is reported as 0.984.
With B39 the OD450nm was 0.769 and 0.739 and 0.77 and the Ratio OD(Variant)/OD(WT) was 0.965 and 0.927 and 0.966.
B40 was tested, and the OD450nm was 0.74 and the Ratio OD(Variant)/OD(WT) was 0.895.
B41 was tested, and the OD450nm was 0.759 and the Ratio OD(Variant)/OD(WT) was 0.918.
